Measurements taken from PMC10147923, “Pain-causing stinging nettle toxins target TMEM233 to modulate NaV1.7 function” (Nature Communications, 2023).
Several values for one entry are separate records, joined by “and”; a condition that tells them apart may be missing. Equal entries are not always repeated.

B1: HA-TMEM233 (protein, UniProt B4DJY2 1-109, looked up)
Transmembrane protein 233: MSQYAPSPDFKRALDSSPEANTEDDKTEEDVPMPKNYLWLTIVSCFCPAYPINIVALVFSIMSLNSYNDGDYEGARRLGRNAKWVAIASIIIGLLIIGISCAVHFTRNA
modifications: HA tag
B2: TMEM233 35-109 (protein, UniProt B4DJY2 35-109, looked up, fragment)
chain: KNYLWLTIVSCFCPAYPINIVALVFSIMSLNSYNDGDYEGARRLGRNAKWVAIASIIIGLLIIGISCAVHFTRNA

Legend:
NaV1.7/TMEM233 = NaV1.7/TMEM233 (Homo sapiens, UniProt B4DJY2+Q15858); assay: Proximity ligation assay NaV1.7 and TMEM233; settings: Fig 5e
Sequence of NaV1.7/TMEM233 (Q07699 19-218, one chain of several, further chain): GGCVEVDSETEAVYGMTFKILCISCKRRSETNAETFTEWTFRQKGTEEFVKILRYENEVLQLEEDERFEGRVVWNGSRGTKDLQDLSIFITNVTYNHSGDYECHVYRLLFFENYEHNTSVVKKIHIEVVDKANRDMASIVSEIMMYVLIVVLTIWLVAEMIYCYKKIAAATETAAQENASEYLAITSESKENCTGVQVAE
Sequence of NaV1.7/TMEM233 (Q15858 whole entry, one chain of several): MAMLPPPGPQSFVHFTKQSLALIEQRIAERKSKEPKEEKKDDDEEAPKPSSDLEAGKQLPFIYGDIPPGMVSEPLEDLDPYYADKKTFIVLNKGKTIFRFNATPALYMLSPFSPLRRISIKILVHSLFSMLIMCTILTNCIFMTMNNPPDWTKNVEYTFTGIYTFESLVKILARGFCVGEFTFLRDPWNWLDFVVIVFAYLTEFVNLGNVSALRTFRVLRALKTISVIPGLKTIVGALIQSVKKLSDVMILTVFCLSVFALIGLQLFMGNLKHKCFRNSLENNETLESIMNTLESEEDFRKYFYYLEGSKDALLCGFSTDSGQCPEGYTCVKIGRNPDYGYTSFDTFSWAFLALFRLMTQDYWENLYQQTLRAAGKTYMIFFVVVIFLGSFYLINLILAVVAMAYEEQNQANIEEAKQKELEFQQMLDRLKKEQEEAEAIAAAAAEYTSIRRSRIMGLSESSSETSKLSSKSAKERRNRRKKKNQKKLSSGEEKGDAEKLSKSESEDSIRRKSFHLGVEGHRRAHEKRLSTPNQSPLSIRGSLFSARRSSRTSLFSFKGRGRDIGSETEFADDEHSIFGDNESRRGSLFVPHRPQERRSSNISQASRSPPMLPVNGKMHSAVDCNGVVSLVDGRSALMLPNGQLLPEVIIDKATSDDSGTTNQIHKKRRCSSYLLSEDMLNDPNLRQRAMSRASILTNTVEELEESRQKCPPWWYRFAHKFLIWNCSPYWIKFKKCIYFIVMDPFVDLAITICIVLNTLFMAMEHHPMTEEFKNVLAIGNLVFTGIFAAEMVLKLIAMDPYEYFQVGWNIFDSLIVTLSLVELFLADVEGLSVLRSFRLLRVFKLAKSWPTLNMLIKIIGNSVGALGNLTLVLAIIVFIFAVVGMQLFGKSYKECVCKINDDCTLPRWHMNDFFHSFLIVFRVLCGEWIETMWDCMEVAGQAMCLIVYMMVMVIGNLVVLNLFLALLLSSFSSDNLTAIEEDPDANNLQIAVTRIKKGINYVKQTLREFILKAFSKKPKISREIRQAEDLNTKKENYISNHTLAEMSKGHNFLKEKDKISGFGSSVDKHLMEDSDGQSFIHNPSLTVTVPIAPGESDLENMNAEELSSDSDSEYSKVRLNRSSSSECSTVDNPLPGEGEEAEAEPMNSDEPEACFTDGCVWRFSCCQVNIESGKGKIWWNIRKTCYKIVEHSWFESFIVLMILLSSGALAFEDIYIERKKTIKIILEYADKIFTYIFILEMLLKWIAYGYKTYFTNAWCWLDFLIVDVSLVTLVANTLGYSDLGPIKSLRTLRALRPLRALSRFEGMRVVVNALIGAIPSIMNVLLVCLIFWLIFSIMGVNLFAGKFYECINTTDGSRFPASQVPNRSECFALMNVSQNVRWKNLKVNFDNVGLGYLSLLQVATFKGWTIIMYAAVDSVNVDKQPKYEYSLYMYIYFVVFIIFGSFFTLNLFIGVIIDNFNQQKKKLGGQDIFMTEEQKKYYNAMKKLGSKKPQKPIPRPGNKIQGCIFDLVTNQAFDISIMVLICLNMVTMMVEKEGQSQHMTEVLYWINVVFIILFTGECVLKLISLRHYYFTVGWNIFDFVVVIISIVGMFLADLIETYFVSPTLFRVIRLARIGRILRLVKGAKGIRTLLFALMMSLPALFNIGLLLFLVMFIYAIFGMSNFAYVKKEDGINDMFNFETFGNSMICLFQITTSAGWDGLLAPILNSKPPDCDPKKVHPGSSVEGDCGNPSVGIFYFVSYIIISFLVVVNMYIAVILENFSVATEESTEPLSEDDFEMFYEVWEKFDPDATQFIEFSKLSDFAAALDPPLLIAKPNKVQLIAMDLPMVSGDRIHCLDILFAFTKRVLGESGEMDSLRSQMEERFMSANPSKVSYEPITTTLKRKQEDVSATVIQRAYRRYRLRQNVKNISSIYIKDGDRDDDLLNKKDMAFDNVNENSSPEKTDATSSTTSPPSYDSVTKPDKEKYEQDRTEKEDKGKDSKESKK
Procedure: HEK293 cells stably expressing β1/β2 were transiently transfected in T25 flasks using Lipofectamine 2000 with plasmids encoding GFP (0.35 μg) as a transfection control, as well as N-terminal HA-tagged TMEM233 (0.35 μg) and N-terminal FLAG- tagged NaV1.7 (1.0 μg) alone or in combination. The total amount of plasmid DNA/T25 flask was kept constant at 1.7 μg flask using empty pcDNA3.1 plasmid as required. After 24 h incubation at 37 °C, cells were plated on PDL-coated glass coverslips and cultured for a further 24 h. Cells were washed once using sterile phosphate-buffered saline, fixed with 4% formaldehyde for 5 min, permeabilized with 0.1% Triton-X 100 in PSS, blocked using proximity ligation bocking buffer (Sigma DUO82007) and incubated for 1 h with anti-FLAG (1:1000; Sigma F1804) and anti-HA (1:1000; Sigma H6908) antibodies in Duolink antibody diluent. Permeabilized cells were then washed twice with wash buffer A at room temperature for 5 min. Anti-mouse PLUS (Sigma DUO92001) and anti-rabbit MINUS (Sigma DUO92005) probes were diluted 1:5 in Duolink antibody diluent and incubated with cells for 1 h at 37 °C. Cells were then washed with wash buffer A at room temperature for 5 min twice and incubated with ligase diluted 1:40 in ligation buffer. After incubation at 37 °C for 30 mins, cells were washed twice with wash buffer A. Polymerase was diluted 1:80 in amplification buffer and incubated with cells for 100 mins at 37 °C. Cells were subsequently washed with wash buffer B twice for 10 mins and mounted with Duolink In Situ mounting media with DAPI. Cells were imaged on a Zeiss AxioImage M2 with Apotome2 and Axiocam 506 camera. Proximity ligation assay signal (PLA particles) in GFP-positive cells were quantified using ImageJ in collapsed stacks from 3–6 random images obtained per coverslip (Image>Type>8-bit; Image>Adjust>Threshold; Image>Analyze>Analyze Particles). Particles size was set to 0.0003–∞ and circularity to 0.00–1.00. The average number of particles/GFP-positive cells from three independent experiments was analyzed by One-way ANOVA.

NaV1.7 = NaV1.7 (Homo sapiens, UniProt Q15858); format: cell-based
Sequence of NaV1.7 (Q15858 whole entry): as the sequence (Q15858 whole entry, one chain of several) above
Sequence of NaV1.7 (Q07699 19-218, further chain): as the sequence (Q07699 19-218, one chain of several, further chain) above
Procedure: To determine recovery from fast inactivation, a 20 ms pulse to 0 mV from a holding potential of −90 mV was used to induce fast inactivation. A subsequent recovery period, ranging from 1 ms to 2216 ms in 50% increments at −90 mV, was followed by a last 20 ms test pulses to 0 mV to determine the time-dependence of recovery from fast inactivation. The proportion of available channels was determined by normalizing peak currents from the last to the first pulse. A two-phase exponential equation was fit to the normalized current, plotted as a function of time, to determine the time constants τ1 and τ2 of recovery from fast inactivation.

| Molecule | particles/cell, mean (NaV1.7/TMEM233; mean of n = 3) | particles/cell (NaV1.7/TMEM233; replicate 1) | particles/cell (NaV1.7/TMEM233; replicate 2) | particles/cell (NaV1.7/TMEM233; replicate 3) | Tau Fast, individual values (NaV1.7) | Tau Fast, mean (NaV1.7) | Tau Fast, mean diff. NaV1.7/β1/TMEM233 35-109 vs. NaV1.7/β1 (NaV1.7) |
| --- | --- | --- | --- | --- | --- | --- | --- |
| B1 | 7.485 particles/cell | 4.895 particles/cell | 6.562 particles/cell | 11 particles/cell |  |  |  |
| B2 |  |  |  |  | 8.336 and 5.75 and 6.866 and 4.165 and 7.033 and 6.03 and 5.901 | 6.297 | 0.2467 |
